# The supplement of paper PMC10724198
# ± gives the standard deviation of the averaged measurements.
# Legend:
# Saccharomyces cerevisiae [1] = assay: protein stability index of tFT-peptide fusion (C-terminal peptide) (PSI (0-1 scale)); higher = more stable (slower turnover)
# Method: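 MPS profiling in S. cerevisiae of the tFT-X12 degron library: putative degron peptides plus stable controls, 12 aa, fused to the C-terminus of a sfGFP-mCherry timer. Cells are FACS-sorted into 8 mCherry/sfGFP bins and deep-sequenced. PSI runs from 0 (unstable) to 1 (stable). Backgrounds are wild type, das1Δ and doa10Δ at 30 °C, and wild type, das1Δ, cdc34-1 and cdc53-1 at 37 °C; 2-3 technical replicates each.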
# Saccharomyces cerevisiae [2] = assay: as above; settings: genetic background: wild type; temperature: 30 C
# [3] = genetic background: cdc34-1, temperature: 37 C
# [4] = genetic background: cdc53-1, temperature: 37 C
# [5] = genetic background: das1 deletion, temperature: 30 C
# [6] = genetic background: das1 deletion, temperature: 37 C
# [7] = genetic background: doa10 deletion, temperature: 30 C
# [8] = genetic background: wild type, temperature: 30 C
# [9] = genetic background: wild type, temperature: 37 C
# 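Further: PSI is a weighted mean of sequencing reads over stability bins, variants kept only with over 10 reads, mCherry proximal and sfGFP distal, peptide attached via GGGS linker.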
Sequence,protein stability index (Saccharomyces cerevisiae [1]; [3]),protein stability index (Saccharomyces cerevisiae [1]; [4]),protein stability index (Saccharomyces cerevisiae [1]; [5]),protein stability index (Saccharomyces cerevisiae [1]; [6]),protein stability index (Saccharomyces cerevisiae [1]; [7]),protein stability index (Saccharomyces cerevisiae [1]; [8]),protein stability index (Saccharomyces cerevisiae [1]; [9]),protein stability index (Saccharomyces cerevisiae [2])
VSRAVCLWRRLL,0.479 ± 0.006,0.68 ± 0.061,0.618 ± 0.0096,0.7305 ± 0.0018,0.0796 ± 0.0058,0.104 ± 0.036,0.124 ± 0.026,0.0882 ± 0.088
VSSFLLPFCLLF,0.65 ± 0.025,0.689 ± 0.029,0.645 ± 0.0076,0.714 ± 0.025,0.654 ± 0.021,0.641 ± 0.016,0.6753 ± 0.0013,0.51 ± 0.1
VSWSVSALIYLK,0.169 ± 0.017,0.1 ± 0.026,0.233 ± 0.039,0.319 ± 0.014,0.572 ± 0.01,0.277 ± 0.034,0.295 ± 0.015,0.35 ± 0.0075
VTLLCRFFMLVF,0.454 ± 0.01,0.5149 ± 0.00071,0.402 ± 0.025,0.543 ± 0.01,0.273 ± 0.014,0.289 ± 0.014,0.428 ± 0.017,0.369 ± 0.021
VVGFVFSCWWSW,0.433 ± 0.031,0.4646 ± 0.00097,0.367 ± 0.039,0.506 ± 0.013,0.365 ± 0.015,0.372 ± 0.045,0.46 ± 0.014,0.5003 ± 0.0031
VVGVLLLYLNPF,0.431 ± 0.0048,0.5071 ± 0.0037,0.351 ± 0.025,0.572 ± 0.023,0.3188 ± 0.0024,0.336 ± 0.039,0.525 ± 0.0095,0.4677 ± 0.0038
VVLWWWVVARDL,0.414 ± 0.019,0.495 ± 0.038,0.402 ± 0.03,0.551 ± 0.031,0.332 ± 0.026,0.339 ± 0.03,0.514 ± 0.01,0.44 ± 0.028
VVRLRVWRLLKV,0.267 ± 0.022,0.33 ± 0.048,0.253 ± 0.03,0.42491 ± 4.8e-05,0.101 ± 0.034,0.161 ± 0.026,0.185 ± 0.016,0.225 ± 0.023
VVRSIVVYTCVF,0.3284 ± 0.0017,0.365 ± 0.041,0.262 ± 0.026,0.4241 ± 0.0025,0.219 ± 0.0039,0.253 ± 0.02,0.405 ± 0.0074,0.352 ± 0.021
VVRVIWCQFSCF,0.494 ± 0.036,0.545 ± 0.016,0.414 ± 0.026,0.595 ± 0.017,0.208 ± 0.0071,0.234 ± 0.022,0.434 ± 0.027,0.334 ± 0.0057
VVTLHISLFYPG,0.447 ± 0.033,0.511 ± 0.018,0.406 ± 0.031,0.5 ± 0.0056,0.418 ± 0.06,0.415 ± 0.029,0.461 ± 0.019,0.479 ± 0.023
VVVRARVFFHIF,0.285 ± 0.012,0.444 ± 0.015,0.361 ± 0.022,0.538 ± 0.006,0.0651 ± 0.0018,0.0583 ± 0.025,0.07 ± 0.014,0.0561 ± 0.048
VVWLFGVSWCWL,0.429 ± 0.018,0.5093 ± 0.0025,0.355 ± 0.022,0.525 ± 0.006,0.313 ± 0.011,0.34 ± 0.03,0.518 ± 0.015,0.419 ± 0.0056
VWACWCGWVLLM,0.319 ± 0.038,0.388 ± 0.024,0.314 ± 0.027,0.4667 ± 0.0039,0.153 ± 0.0066,0.15 ± 0.019,0.195 ± 0.0032,0.235 ± 0.072
VWLFCLSRLYLL,0.298 ± 0.039,0.383 ± 0.007,0.38 ± 0.03,0.4939 ± 0.0043,0.143 ± 0.015,0.101 ± 0.023,0.114 ± 0.011,0.206 ± 0.052
VYCQRFMLLFTP,0.527 ± 0.059,0.535 ± 0.019,0.459 ± 0.03,0.581 ± 0.021,0.553 ± 0.011,0.433 ± 0.0094,0.55 ± 0.0071,0.4872 ± 0.0007
VYGSLPVVVCRI,0.534 ± 0.059,0.538 ± 0.013,0.409 ± 0.023,0.56 ± 0.016,0.4 ± 0.022,0.413 ± 0.011,0.539 ± 0.011,0.525 ± 0.065
VYIVLLLLFLRP,0.356 ± 0.0046,0.378 ± 0.013,0.317 ± 0.031,0.407 ± 0.021,0.3194 ± 0.003,0.319 ± 0.015,0.3951 ± 0.0015,0.308 ± 0.031
VYLVLRCGSVLV,0.565 ± 0.015,0.56 ± 0.032,0.406 ± 0.021,0.597 ± 0.011,0.379 ± 0.018,0.399 ± 0.016,0.586 ± 0.02,0.443 ± 0.054
VYVLVFNMENIS,0.5603 ± 0.0009,0.588 ± 0.0096,0.382 ± 0.03,0.616 ± 0.011,0.382 ± 0.0068,0.401 ± 0.033,0.585 ± 0.036,0.4891 ± 0.0047
VYVSRTRPFSLY,0.682 ± 0.052,0.7141 ± 0.0054,0.63 ± 0.011,0.728 ± 0.022,0.33 ± 0.0094,0.3687 ± 0.0034,0.573 ± 0.007,0.428 ± 0.031
WACAWRGMVKVG,0.202 ± 0.021,0.245 ± 0.0068,0.232 ± 0.034,0.38 ± 0.0041,0.0812 ± 0.0095,0.0897 ± 0.021,0.0811 ± 0.0041,0.156 ± 0.018
WAIVVLVCFLRL,0.283 ± 0.011,0.299 ± 0.0052,0.277 ± 0.022,0.388 ± 0.017,0.332 ± 0.024,0.277 ± 0.019,0.362 ± 0.011,0.343 ± 0.017
WCCCVSGFVWWM,0.563 ± 0.012,0.6296 ± 0.0022,0.491 ± 0.03,0.633 ± 0.021,0.458 ± 0.011,0.465 ± 0.015,0.602 ± 0.017,0.526 ± 0.11
WCGSWGVWMRLG,0.296 ± 0.08,0.456 ± 0.015,0.534 ± 0.03,0.646 ± 0.02,0.0974 ± 0.008,0.0842 ± 0.0092,0.112 ± 0.029,0.122 ± 0.031
WEPILLELELCV,0.498 ± 0.035,0.497 ± 0.026,0.395 ± 0.03,0.487 ± 0.023,0.327 ± 0.021,0.388 ± 0.013,0.538 ± 0.068,0.4357 ± 0.0036
WFLLILFSAFAV,0.433 ± 0.021,0.463 ± 0.036,0.352 ± 0.022,0.501 ± 0.0097,0.314 ± 0.0041,0.3465 ± 0.003,0.471 ± 0.0049,0.436 ± 0.0045
WFSVIMLCYILP,0.204 ± 0.023,0.22 ± 0.028,0.23 ± 0.042,0.3397 ± 0.0018,0.233 ± 0.027,0.198 ± 0.014,0.248 ± 0.036,0.253 ± 0.004
